The assay has as its target RIBEYE(B)-MBP (rat, UniProt Q9EQH5-2 564-988). Nature of the assay: pull-down.

Here are results for one molecule from publication PMC3900572 (The Journal of neuroscience : the official journal of the …, 2010).

As usually defined, the Kd is the constant that tells how readily two partners part at equilibrium. A higher Kd goes with weaker binding.

B1: GST-tagged full-length bovine GCAP2 (amino acids 1–204) (natural protein, UniProt P51177 1-204, looked up)
chain: MGQQFSWEEAEENGAVGAADAAQLQEWYKKFLEECPSGTLFMHEFKRFFKVPDNEEATQYVEAMFRAFDTNGDNTIDFLEYVAALNLVLRGTLEHKLKWTFKIYDKDRNGCIDRQELLDIVESIYKLKKACSVEVEAEQQGKLLTPEEVVDRIFLLVDENGDGQLSLNEFVEGARRDKWVMKMLQMDLNPSSWISQQRRKSAMF
In turn, B1 returned a Kd of 2.72 µM.
